Data published in patent US20130236458A1 (AbbVie / Abbott, published 2013).

T1: Recombinant Human IL-17 (human, UniProt Q16552 20-155, limits assumed)
T1 construct: bought reagent; also called IL-17A
T1 sequence (looked up): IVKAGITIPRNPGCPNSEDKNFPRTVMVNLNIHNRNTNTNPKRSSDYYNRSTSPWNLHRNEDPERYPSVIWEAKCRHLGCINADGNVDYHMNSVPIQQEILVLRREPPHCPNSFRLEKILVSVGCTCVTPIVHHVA


Experiments:
[1] = target: T2, Recombinant Human IL-13 (human, UniProt P35225 35-146, limits assumed); test: cell-based or functional assay
T2 sequence (P35225 35-146 limits assumed): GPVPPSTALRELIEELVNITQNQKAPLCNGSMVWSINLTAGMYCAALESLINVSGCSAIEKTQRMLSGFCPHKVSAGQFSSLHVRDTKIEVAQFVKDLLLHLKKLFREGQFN

[2] = target: T1, Recombinant Human IL-17; test: SPR (Biacore)
Outline: (§1)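 Antibodies or DVD-Ig captured on anti-mouse IgG (Fcγ) CM5 surface; antigen injected at 10–200 nM in HBS-EP, pH 7.4, 25 °C, 25 µL/min. kon and koff from global 1:1 Langmuir fit; KD = koff/kon.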

[3] = target: T2, Recombinant Human IL-13; test: SPR (Biacore)
Outline: as §1

[4] = target: T1, Recombinant Human IL-17; test: cell-based or functional assay

Row | N-Terminal VD IL13 Neutralization Assay IC50 [1] | Kd [2] | koff [2] | kon [2] | Kd [3] | koff [3] | kon [3] | C-Terminal VD IL17 Neutralization Assay IC50 [4] | C-Terminal VD IL13 Neutralization Assay IC50 [1] | N-Terminal VD IL17 Neutralization Assay IC50 [4] | Binder
1 | 0.087 nM | 0.038 nM | 3.4e-06 s⁻¹ | 89000 M⁻¹ s⁻¹ | 0.021 nM | 5.7e-05 s⁻¹ | 2.6e+06 M⁻¹ s⁻¹ | 0.061 nM | – | – | DVD2190 (bispecific antibody, DVD-Ig; also called DVD2190H; DVD2190L) VH: EVQLVQSGAEVKKPGASVKVSCKASGYTFTSYWMHWVRQAPGQGLEWIGNINPKGGSNIYNEKFQGRVTMTRDTSISTAYMELSRLRSDDTAVYYCARLDYFGDSFDLWGQGTTVTVSSASTKGPEVQLVQSGAEVKKPGSSVKVSCKASGGSFGGYGIGWVRQAPGQGLEWMGGITPFFGFADYAQKFQGRVTITADESTTTAYMELSGLTSDDTAVYYCARDPNEFWNGYYSTHDFDSWGQGTTVTVSS VL: DIQMTQSPSSLSASVGDRVTITCRASQGIRNYLNWYQQKPGKAPKLLIYYASNLEVGVPSRFSGSGSGTDYTLTISSLQPEDFATYYCQQDNRFPYTFGGGTKVEIKRTVAAPEIVLTQSPDFQSVTPKEKVTITCRASQDIGSELHWYQQKPDQPPKLLIKYASHSTSGVPSRFSGSGSGTDFTLTINGLEAEDAGTYYCHQTDSLPYTFGPGTKVDIKR
2 | 0.056 nM | < 0.0038 nM | < 1e-06 s⁻¹ | 260000 M⁻¹ s⁻¹ | 0.035 nM | 5.1e-05 s⁻¹ | 1.5e+06 M⁻¹ s⁻¹ | 0.015 nM | – | – | DVD2192 (bispecific antibody, DVD-Ig; also called DVD2192H; DVD2192L) VH: EVQLVQSGAEVKKPGASVKVSCKASGYTFTSYWMHWVRQAPGQGLEWIGNINPKGGSNIYNEKFQGRVTMTRDTSISTAYMELSRLRSDDTAVYYCARLDYFGDSFDLWGQGTTVTVSSASTKGPEVQLVQSGAEVKKPGSSVKVSCKASGGSFGGYGIGWVRQAPGQGLEWMGGITPFFGFADYAQKFQGRVTITADESTTTAYMELSGLTSDDTAVYYCARDPNEFWNGYYSTHDFDSWGQGTTVTVSS VL: DIQMTQSPSSLSASVGDRVTITCRASQGIRNYLNWYQQKPGKAPKLLIYYASNLEVGVPSRFSGSGSGTDYTLTISSLQPEDFATYYCQQDNRFPYTFGGGTKVEIKRTVAAPSVFIFPPEIVLTQSPDFQSVTPKEKVTITCRASQDIGSELHWYQQKPDQPPKLLIKYASHSTSGVPSRFSGSGSGTDFTLTINGLEAEDAGTYYCHQTDSLPYTFGPGTKVDIKR
3 | – | < 0.0004 nM | < 1e-06 s⁻¹ | 2.5e+06 M⁻¹ s⁻¹ | 0.094 nM | 3.9e-05 s⁻¹ | 410000 M⁻¹ s⁻¹ | – | 0.172 nM | 0.0017 nM | DVD2189 (bispecific antibody, DVD-Ig; also called DVD2189H; DVD2189L) VH: EVQLVQSGAEVKKPGSSVKVSCKASGYTFTDYEIHWVRQAPGQGLEWMGVNDPESGGTFYNQKFDGRVTLTADESTSTAYMELSSLRSEDTAVYYCTRYSKWDSFDGMDYWGQGTTVTVSSASTKGPSVFPLAPEVQLVQSGAEVKKPGASVKVSCKASGYTFTSYWMHWVRQAPGQGLEWIGNINPKGGSNIYNEKFQGRVTMTRDTSISTAYMELSRLRSDDTAVYYCARLDYFGDSFDLWGQGTTVTVSS VL: DIQMTQSPSSLSASVGDRVTITCRASSGIISYIDWFQQKPGKAPKRLIYATFDLASGVPSRFSGSGSGTDYTLTISSLQPEDFATYYCRQVGSYPETFGQGTKLEIKRTVAAPDIQMTQSPSSLSASVGDRVTITCRASQGIRNYLNWYQQKPGKAPKLLIYYASNLEVGVPSRFSGSGSGTDYTLTISSLQPEDFATYYCQQDNRFPYTFGGGTKVEIKR
4 | – | 0.0046 nM | 1.2e-05 s⁻¹ | 2.5e+06 M⁻¹ s⁻¹ | 0.17 nM | 4.4e-05 s⁻¹ | 260000 M⁻¹ s⁻¹ | – | 0.165 nM | 0.013 nM | DVD2191 (bispecific antibody, DVD-Ig; also called DVD2191H; DVD2191L) VH: EVQLVQSGAEVKKPGSSVKVSCKASGGSFGGYGIGWVRQAPGQGLEWMGGITPFFGFADYAQKFQGRVTITADESTTTAYMELSGLTSDDTAVYYCARDPNEFWNGYYSTHDFDSWGQGTTVTVSSASTKGPEVQLVQSGAEVKKPGASVKVSCKASGYTFTSYWMHWVRQAPGQGLEWIGNINPKGGSNIYNEKFQGRVTMTRDTSISTAYMELSRLRSDDTAVYYCARLDYFGDSFDLWGQGTTVTVSS VL: EIVLTQSPDFQSVTPKEKVTITCRASQDIGSELHWYQQKPDQPPKLLIKYASHSTSGVPSRFSGSGSGTDFTLTINGLEAEDAGTYYCHQTDSLPYTFGPGTKVDIKRTVAAPDIQMTQSPSSLSASVGDRVTITCRASQGIRNYLNWYQQKPGKAPKLLIYYASNLEVGVPSRFSGSGSGTDYTLTISSLQPEDFATYYCQQDNRFPYTFGGGTKVEIKR
